Results taken from the Human Domainome abundance scans (Beltran et al. 2025).
± gives the uncertainty stated by the source.

B1: MEF2-activating motif and SAP domain-containing transcriptional regulator, residues 170 to 204; numbered along this chain, Q6ZN01 (parent)
chain: LKLEELTVSELRQQLRLRGLPVSGTKSMLLERMRG

Variants of: B1
Assay: abundance fitness (aPCA) (normalised: wild type 0, dead -1); higher = more abundant; growth selection in yeast, the domain comes from the species named
Conditions: Homo sapiens

| Variant | abundance fitness |
| --- | --- |
| R34D | -0.396 ± 0.2 |
| L6Y | -0.384 ± 0.12 |
| V22Y | 0.298 ± 0.11 |
| G24L | -1.01 ± 0.26 |
| G19V | -1.02 ± 0.1 |
| E31T | -0.348 ± 0.096 |
| L11W | -0.897 ± 0.11 |
| T7W | -0.518 ± 0.099 |
| R18G | -0.523 ± 0.097 |
| R12G | -0.593 ± 0.076 |
| L6A | -0.314 ± 0.067 |
| E31V | -1.16 ± 0.23 |
| G24V | -0.828 ± 0.069 |
| G35R | -0.436 ± 0.11 |
| P21M | -0.655 ± 0.23 |
| G19C | -0.559 ± 0.092 |
| L6C | -0.299 ± 0.19 |
| L3Y | -0.556 ± 0.16 |
| G19T | -0.683 ± 0.11 |
| L30T | -0.257 ± 0.068 |
| L17M | -0.087 ± 0.062 |
| L11Q | -0.568 ± 0.1 |
| T7P | -0.227 ± 0.15 |
| L20A | -0.296 ± 0.075 |

| Variant | abundance fitness |
| --- | --- |
| M28A | 0.022 ± 0.095 |
| L30P | -0.507 ± 0.066 |
| Q13D | -0.075 ± 0.09 |
| L6I | -0.266 ± 0.13 |
| L11V | -0.59 ± 0.074 |
| L15Y | -0.661 ± 0.078 |
| S9D | 0.173 ± 0.074 |
| L6G | -0.533 ± 0.059 |
| R34L | -0.068 ± 0.15 |
| L15S | -0.215 ± 0.091 |
| M28Q | 0.067 ± 0.32 |
| E4Q | -0.317 ± 0.16 |
| P21G | -0.297 ± 0.048 |
| L30Q | 0.004 ± 0.084 |
| L30E | -0.251 ± 0.091 |
| S23E | 0.025 ± 0.068 |
| L11F | -1.08 ± 0.34 |
| L29S | -0.545 ± 0.061 |
| T25E | -0.051 ± 0.06 |
| L29T | -0.297 ± 0.08 |
| L20V | -0.575 ± 0.071 |
| P21D | -0.094 ± 0.059 |
| E10S | -0.454 ± 0.072 |
| V22T | 0.152 ± 0.097 |

| Variant | abundance fitness |
| --- | --- |
| Q13A | -0.285 ± 0.11 |
| Q13C | -0.163 ± 0.1 |
| Q14K | -0.175 ± 0.35 |
| R12D | -0.488 ± 0.11 |
| L3S | -0.22 ± 0.088 |
| R16L | -0.027 ± 0.067 |
| S23L | -0.349 ± 0.068 |
| L3P | -0.14 ± 0.087 |
| L15R | -0.712 ± 0.063 |
| R34N | 0.21 ± 0.12 |
| L15P | -0.6 ± 0.12 |
| V8E | 0.026 ± 0.072 |
| S9E | 0.181 ± 0.074 |
| Q13R | -0.23 ± 0.095 |
| R32K | -0.545 ± 0.16 |
| M28P | -0.973 ± 0.38 |
| Q13W | -0.28 ± 0.072 |
| T25D | 0.215 ± 0.096 |
| G35N | -0.161 ± 0.28 |
| Q13V | -0.11 ± 0.067 |
| E4I | -0.464 ± 0.23 |
| R34Q | 0.156 ± 0.068 |
| R18N | -0.299 ± 0.32 |
| V8K | -0.066 ± 0.11 |

| Variant | abundance fitness |
| --- | --- |
| P21Q | -0.317 ± 0.058 |
| L20W | -0.626 ± 0.089 |
| E31G | -0.279 ± 0.061 |
| T7E | -0.347 ± 0.072 |
| L6Q | -0.236 ± 0.07 |
| T25L | -0.581 ± 0.075 |
| M33Q | 0.04 ± 0.25 |
| V8R | -0.309 ± 0.063 |
| S27T | -0.108 ± 0.078 |
| R32W | -0.554 ± 0.074 |
| V22D | -0.046 ± 0.096 |
| L30R | -0.283 ± 0.07 |
| K26E | -0.379 ± 0.17 |
| L6N | -0.166 ± 0.11 |
| K26G | -0.78 ± 0.1 |
| S27Y | -0.725 ± 0.35 |
| L29I | -0.749 ± 0.19 |
| V8N | -0.387 ± 0.14 |
| G35A | -0.117 ± 0.13 |
| K2P | -0.572 ± 0.12 |
| E5P | -0.335 ± 0.19 |
